Results taken from the Human Domainome abundance scans (Beltran et al. 2025).
± gives the uncertainty stated by the source.

B1: Ankyrin-2, residues 3571 to 3650; numbered along this chain, Q01484 (parent)
chain: ERLAYIADHLGFSWTELARELDFTEEQIHQIRIENPNSLQDQSHALLKYWLERDGKHATDTNLVECLTKINRMDIVHLME

Variants of: B1
Experiment: abundance fitness (aPCA) (normalised: wild type 0, dead -1); higher = more abundant; growth selection in yeast, the domain comes from the species named
Conditions: Homo sapiens

ERLAYIADHLGFSWTELARELDFTEEQIHQIRIENPNSLQDQSHALLKYWLERDGKHATDTNLVECLTKINRLDIVHLME and ERLAYIADHLGFSWTELARELDFTEEQIHQIRIENPNSLQDQSHALLKYWLERDGKHATDTNLVECLTKINRCDIVHLME are within error of each other in abundance fitness: 0.04 ± 0.41 for the first, 0.226 ± 0.48 for the second.

ERLAYIADHLGFSWTELARELDFTEEQIHQIRIENPNSLQDQSHALLKYWLERDGKHATDTNLVECLTKINRGDIVHLME and ERLAYIADHLGFSWTELARELDFTEEQIHQIRIENPNSLQDQSHALLKYWLERDGKHATDTNLVECLTKINRPDIVHLME are within error of each other in abundance fitness: -0.165 ± 0.31 for the first, -0.134 ± 0.45 for the second.

ERLAYIADHLGFSWTELARELDFTEEQIHQIRIENPNSLQDQSHALLKYWLERDGKHATDTNLVECLTKINRTDIVHLME and ERLAYIADHLGFSWTELARELDFTEEQIHQIRIENPNSLQDQSHALLKYWLERDGKHATDTNLVECLTKINRRDIVHLME are within error of each other in abundance fitness: -0.092 ± 0.16 for the first, 0.018 ± 0.35 for the second.

Going from ERLAYIADHLGFSWTELARELDFTEEQIHQIRIENPNSLQDQSHALLKYWLERDGKHATDTNLVECLTKINGMDIVHLME to ERLAYIADHLGFSWTELARELDFTEEQIHQIRIENPNSLQDQSHALLKYWLERDGKHATDTNLVECLTKINSMDIVHLME, the abundance fitness rises from -0.204 ± 0.12 to 0.223 ± 0.26.

ERLAYIADHLGFSWTELARELDFTEEQIHQIRIENPNSLQDQSHALLKYWLERDGKHATDTNLVECLTKINLMDIVHLME and ERLAYIADHLGFSWTELARELDFTEEQIHQIRIENPNSLQDQSHALLKYWLERDGKHATDTNLVECLTKINAMDIVHLME are within error of each other in abundance fitness: -0.187 ± 0.15 for the first, -0.205 ± 0.21 for the second.

ERLAYIADHLGFSWTELARELDFTEEQIHQIRIENPNSLQDQSHALLKYWLERDGKHATDTNLVECLTKINTMDIVHLME and ERLAYIADHLGFSWTELARELDFTEEQIHQIRIENPNSLQDQSHALLKYWLERDGKHATDTNLVECLTKINPMDIVHLME are within error of each other in abundance fitness: -0.331 ± 0.29 for the first, -0.588 ± 0.093 for the second.

ERLAYIADHLGFSWTELARELDFTEEQIHQIRIENPNSLQDQSHALLKYWLERDGKHATDTNLVECLTKINWMDIVHLME and ERLAYIADHLGFSWTELARELDFTEEQIHQIRIENPNSLQDQSHALLKYWLERDGKHATDTNLVECLTKINVMDIVHLME are within error of each other in abundance fitness: -0.659 ± 0.28 for the first, -0.568 ± 0.15 for the second.

ERLAYIADHLGFSWTELARELDFTEEQIHQIRIENPNSLQDQSHALLKYWLERDGKHATDTNLVECLTKINQMDIVHLME and ERLAYIADHLGFSWTELARELDFTEEQIHQIRIENPNSLQDQSHALLKYWLERDGKHATDTNLVECLTKVNRMDIVHLME are within error of each other in abundance fitness: -0.137 ± 0.16 for the first, -0.035 ± 0.14 for the second.

Compared with ERLAYIADHLGFSWTELARELDFTEEQIHQIRIENPNSLQDQSHALLKYWLERDGKHATDTNLVECLTKTNRMDIVHLME, ERLAYIADHLGFSWTELARELDFTEEQIHQIRIENPNSLQDQSHALLKYWLERDGKHATDTNLVECLTKWNRMDIVHLME is lower in abundance fitness: -0.226 ± 0.12 for the first, -0.789 ± 0.21 for the second.

ERLAYIADHLGFSWTELARELDFTEEQIHQIRIENPNSLQDQSHALLKYWLERDGKHATDTNLVECLTKICRMDIVHLME and ERLAYIADHLGFSWTELARELDFTEEQIHQIRIENPNSLQDQSHALLKYWLERDGKHATDTNLVECLTKIERMDIVHLME are within error of each other in abundance fitness: -0.064 ± 0.14 for the first, -0.153 ± 0.12 for the second.

ERLAYIADHLGFSWTELARELDFTEEQIHQIRIENPNSLQDQSHALLKYWLERDGKHATDTNLVECLTKIFRMDIVHLME and ERLAYIADHLGFSWTELARELDFTEEQIHQIRIENPNSLQDQSHALLKYWLERDGKHATDTNLVECLTKIDRMDIVHLME are within error of each other in abundance fitness: -0.343 ± 0.15 for the first, -0.054 ± 0.17 for the second.

ERLAYIADHLGFSWTELARELDFTEEQIHQIRIENPNSLQDQSHALLKYWLERDGKHATDTNLVECLTKIMRMDIVHLME and ERLAYIADHLGFSWTELARELDFTEEQIHQIRIENPNSLQDQSHALLKYWLERDGKHATDTNLVECLTKIARMDIVHLME are within error of each other in abundance fitness: -0.167 ± 0.096 for the first, 0.021 ± 0.099 for the second.

ERLAYIADHLGFSWTELARELDFTEEQIHQIRIENPNSLQDQSHALLKYWLERDGKHATDTNLVECLTKIRRMDIVHLME and ERLAYIADHLGFSWTELARELDFTEEQIHQIRIENPNSLQDQSHALLKYWLERDGKHATDTNLVECLTKITRMDIVHLME are within error of each other in abundance fitness: -0.031 ± 0.073 for the first, -0.18 ± 0.078 for the second.

Compared with ERLAYIADHLGFSWTELARELDFTEEQIHQIRIENPNSLQDQSHALLKYWLERDGKHATDTNLVECLTKIGRMDIVHLME, ERLAYIADHLGFSWTELARELDFTEEQIHQIRIENPNSLQDQSHALLKYWLERDGKHATDTNLVECLTKILRMDIVHLME is lower in abundance fitness: -0.014 ± 0.076 for the first, -0.196 ± 0.055 for the second.

ERLAYIADHLGFSWTELARELDFTEEQIHQIRIENPNSLQDQSHALLKYWLERDGKHATDTNLVECLTKIHRMDIVHLME and ERLAYIADHLGFSWTELARELDFTEEQIHQIRIENPNSLQDQSHALLKYWLERDGKHATDTNLVECLTKIYRMDIVHLME are within error of each other in abundance fitness: -0.163 ± 0.13 for the first, -0.476 ± 0.36 for the second.

First: ERLAYIADHLGFSWTELARELDFTEEQIHQIRIENPNSLQDQSHALLKYWLERDGKHATDTNLVECLTKIWRMDIVHLME
Second: ERLAYIADHLGFSWTELARELDFTEEQIHQIRIENPNSLQDQSHALLKYWLERDGKHATDTNLVECLTKIPRMDIVHLME
The abundance fitness of the first is lower: -0.355 ± 0.093 for the first, -0.135 ± 0.057 for the second.

ERLAYIADHLGFSWTELARELDFTEEQIHQIRIENPNSLQDQSHALLKYWLERDGKHATDTNLVECLTKIVRMDIVHLME and ERLAYIADHLGFSWTELARELDFTEEQIHQIRIENPNSLQDQSHALLKYWLERDGKHATDTNLVECLTKIKRMDIVHLME are within error of each other in abundance fitness: -0.252 ± 0.057 for the first, -0.078 ± 0.12 for the second.

ERLAYIADHLGFSWTELARELDFTEEQIHQIRIENPNSLQDQSHALLKYWLERDGKHATDTNLVECLTKISRMDIVHLME showed an abundance fitness of -0.028 ± 0.065.
